System: Escherichia coli TOP10
Test: shrunken log2 fold change of peptide-encoding DNA abundance (4.5 h post-induction vs induction); higher = less antimicrobial activity (less host growth inhibition)
Conditions: time post-induction: 4.5 h; library: site-saturation at positions 5, 18, 19, 20
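Note: peptides expressed intracellularly from a pBAD plasmid library in pooled LB shake-flask culture, induced with 0.3% L-arabinose, DNA abundance read by NGS, three biological replicates, DESeq2 with apeglm shrinkage.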

Sequence	shrunken log2 fold change
RRIRKRPPRLPRPRPRPKIPPRP	0.174
RRIRRRPPRLPRPRPRPMKQPRP	0.134
RRIRERPPRLPRPRPRPTPNPRP	0.0742
RRIRWRPPRLPRPRPRPYFGPRP	-0.168
RRIRVRPPRLPRPRPRPNVTPRP	-0.554
RRIRSRPPRLPRPRPRPMMSPRP	0.0638
RRIRLRPPRLPRPRPRPPHVPRP	0.989
RRIRHRPPRLPRPRPRPHPCPRP	-0.612
RRIRNRPPRLPRPRPRPIVRPRP	0.0133
RRIRGRPPRLPRPRPRPTIEPRP	0.673
RRIRTRPPRLPRPRPRPQWWPRP	0.199
RRIRQRPPRLPRPRPRPDSKPRP	-0.146
RRIRRRPPRLPRPRPRPKIPPRP	0.0427
RRIRSRPPRLPRPRPRPSAMPRP	0.292
RRIRVRPPRLPRPRPRPVQRPRP	0.167
RRIRNRPPRLPRPRPRPHFQPRP	0.0313
RRIRCRPPRLPRPRPRPQCKPRP	-0.619
RRIRPRPPRLPRPRPRPEFSPRP	-0.0202
RRIRNRPPRLPRPRPRPNCHPRP	0.0111
RRIRERPPRLPRPRPRPQQAPRP	0.01
RRIRARPPRLPRPRPRPRCSPRP	0.205
RRIRTRPPRLPRPRPRPMSNPRP	-0.535

Sequence	shrunken log2 fold change
RRIRERPPRLPRPRPRPLISPRP	-0.0142
RRIRNRPPRLPRPRPRPCFKPRP	-0.0138
RRIRERPPRLPRPRPRPIMRPRP	-0.102
RRIRPRPPRLPRPRPRPKSQPRP	-0.193
RRIRIRPPRLPRPRPRPRQLPRP	-0.27
RRIRPRPPRLPRPRPRPECQPRP	0.126
RRIRVRPPRLPRPRPRPQINPRP	-0.0064
RRIRARPPRLPRPRPRPLCLPRP	0.132
RRIRKRPPRLPRPRPRPYMKPRP	-0.134
RRIRARPPRLPRPRPRPDSLPRP	0.0733
RRIRTRPPRLPRPRPRPATTPRP	-0.181
RRIRIRPPRLPRPRPRPDEIPRP	0.1
RRIRRRPPRLPRPRPRPHICPRP	-0.0887
RRIRGRPPRLPRPRPRPYFPPRP	-0.37
RRIRVRPPRLPRPRPRPSTGPRP	-0.00698
RRIRCRPPRLPRPRPRPQTRPRP	0.471
RRIRTRPPRLPRPRPRPQNIPRP	-0.587
RRIRQRPPRLPRPRPRPTKFPRP	-0.203
RRIRHRPPRLPRPRPRPHFDPRP	-0.107
RRIRIRPPRLPRPRPRPCELPRP	-0.254
RRIRQRPPRLPRPRPRPGDLPRP	0.01
RRIRVRPPRLPRPRPRPCDFPRP	0.0154

Sequence	shrunken log2 fold change
RRIRGRPPRLPRPRPRPRGKPRP	0.341
RRIRNRPPRLPRPRPRPHVQPRP	-0.0883
RRIRDRPPRLPRPRPRPCDRPRP	-0.0944
RRIRLRPPRLPRPRPRPNEWPRP	-0.227
RRIRIRPPRLPRPRPRPLDPPRP	-0.0309
RRIRCRPPRLPRPRPRPTANPRP	0.0466
RRIRARPPRLPRPRPRPPQYPRP	0.33
RRIRDRPPRLPRPRPRPCMGPRP	-0.0733
RRIRPRPPRLPRPRPRPKWPPRP	-0.0466
RRIRERPPRLPRPRPRPYQGPRP	-0.199
RRIRARPPRLPRPRPRPLTAPRP	0.542
RRIRHRPPRLPRPRPRPSQQPRP	-0.031
RRIRIRPPRLPRPRPRPFCYPRP	-0.514
RRIRGRPPRLPRPRPRPEHDPRP	0.835
RRIRSRPPRLPRPRPRPSPEPRP	0.0709
RRIRFRPPRLPRPRPRPPYGPRP	-0.0784
RRIRIRPPRLPRPRPRPCAVPRP	-0.431
RRIRGRPPRLPRPRPRPIIWPRP	0.392
RRIRGRPPRLPRPRPRPAVKPRP	0.0152
RRIRGRPPRLPRPRPRPQSRPRP	0.328
RRIRHRPPRLPRPRPRPRIIPRP	-1.44
RRIRLRPPRLPRPRPRPLEYPRP	-0.116

Sequence	shrunken log2 fold change
RRIRMRPPRLPRPRPRPKWCPRP	0.0391
RRIRIRPPRLPRPRPRPTMDPRP	-0.118
RRIRPRPPRLPRPRPRPYEDPRP	-0.163
RRIRIRPPRLPRPRPRPLERPRP	0.0105
RRIRTRPPRLPRPRPRPQCGPRP	-0.0173
RRIRLRPPRLPRPRPRPQAWPRP	0.126
RRIRWRPPRLPRPRPRPVWSPRP	0.163
RRIRERPPRLPRPRPRPYDFPRP	-0.0231
RRIRHRPPRLPRPRPRPKVIPRP	0.109
RRIRDRPPRLPRPRPRPCFLPRP	-0.106
RRIRVRPPRLPRPRPRPCSAPRP	0.0399
RRIRVRPPRLPRPRPRPQQWPRP	0.0185
RRIRHRPPRLPRPRPRPMRPPRP	0.36
RRIRNRPPRLPRPRPRPHWNPRP	-1.01
RRIRKRPPRLPRPRPRPTWFPRP	0.203
RRIRNRPPRLPRPRPRPYGKPRP	-0.0718
RRIRYRPPRLPRPRPRPLFCPRP	-0.579
RRIRHRPPRLPRPRPRPHWVPRP	-0.00951
RRIRDRPPRLPRPRPRPKQGPRP	0.0662
RRIRERPPRLPRPRPRPNATPRP	0.287
RRIRERPPRLPRPRPRPDNDPRP	-0.259
RRIRRRPPRLPRPRPRPQEMPRP	0.51

Sequence	shrunken log2 fold change
RRIRNRPPRLPRPRPRPLWIPRP	-0.286
RRIRWRPPRLPRPRPRPRIWPRP	-0.0288
RRIRRRPPRLPRPRPRPCESPRP	0.0471
RRIRLRPPRLPRPRPRPSNPPRP	-0.86
RRIRIRPPRLPRPRPRPKDQPRP	-0.196
RRIRDRPPRLPRPRPRPNPGPRP	-0.117
RRIRLRPPRLPRPRPRPGSSPRP	0.0118
RRIRVRPPRLPRPRPRPQGQPRP	0.00581
RRIRYRPPRLPRPRPRPIVQPRP	-0.121
RRIRVRPPRLPRPRPRPVQEPRP	-0.0375
RRIRLRPPRLPRPRPRPRFGPRP	0.145
RRIRARPPRLPRPRPRPASSPRP	0.16
RRIRLRPPRLPRPRPRPSVTPRP	-0.267
RRIRIRPPRLPRPRPRPIMKPRP	-0.227
RRIRARPPRLPRPRPRPKTYPRP	-0.214
RRIRARPPRLPRPRPRPNKSPRP	-0.174
RRIRHRPPRLPRPRPRPLVQPRP	-0.0987
RRIRDRPPRLPRPRPRPYFTPRP	-0.573
RRIRNRPPRLPRPRPRPRRTPRP	0.135
RRIRQRPPRLPRPRPRPYTYPRP	-0.157
RRIRLRPPRLPRPRPRPLGMPRP	0.0609

— the supplement of paper PMC9112550, “Optimization of the antimicrobial peptide Bac7 by deep mutational scanning” (BMC Biology, 2022)
